Measured values: IntAct's records for PubMed 11483516

B1: STAM-binding protein (Homo sapiens), O95630 (parent)
chain: MSDHGDVSLPPEDRVRALSQLGSAVEVNEDIPPRRYFRSGVEIIRMASIYSEEGNIEHAFILYNKYITLFIEKLPKHRDYKSAVIPEKKDTVKKLKEIAFPKAEELKAELLKRYTKEYTEYNEEKKKEAEELARNMAIQQELEKEKQRVAQQKQQQLEQEQFHAFEEMIRNQELEKERLKIVQEFGKVDPGLGGPLVPDLEKPSLDVFPTLTVSSIQPSDCHTTVRPAKPPVVDRSLKPGALSNSESIPTIDGLRHVVVPGRLCPQFLQLASANTARGVETCGILCGKLMRNEFTITHVLIPKQSAGSDYCNTENEEELFLIQDQQGLITLGWIHTHPTQTAFLSSVDLHTHCSYQMMLPESVAIVCSPKFQETGFFKLTDHGLEEISSCRQKGFHPHSKDPPLFCSCSHVTVVDRAVTITDLR
partner: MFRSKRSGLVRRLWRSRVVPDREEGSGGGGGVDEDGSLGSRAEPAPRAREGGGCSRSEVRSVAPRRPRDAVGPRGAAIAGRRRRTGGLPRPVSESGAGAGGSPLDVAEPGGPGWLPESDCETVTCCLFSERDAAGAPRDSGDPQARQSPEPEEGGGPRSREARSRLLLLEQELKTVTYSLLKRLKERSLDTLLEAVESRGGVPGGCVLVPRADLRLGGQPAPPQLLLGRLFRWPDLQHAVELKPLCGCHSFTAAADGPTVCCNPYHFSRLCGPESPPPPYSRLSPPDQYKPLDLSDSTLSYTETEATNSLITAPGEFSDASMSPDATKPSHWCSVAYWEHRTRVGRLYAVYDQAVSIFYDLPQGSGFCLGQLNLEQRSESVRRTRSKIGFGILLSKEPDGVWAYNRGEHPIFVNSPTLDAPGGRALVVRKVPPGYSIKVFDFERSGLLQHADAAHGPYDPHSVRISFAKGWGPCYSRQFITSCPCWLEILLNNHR

Variants of: B1
Conditions: with smad6_mouse Smad6, O35182

| Variant | effect of a mutation on the interaction |
| --- | --- |
| MSDHGDVSLPPEDRVRALSQLGSAVEVNEDIPPRRYFRSGVEIIRMASIYSEEGNIEHAFILYNKYITLFIEKLPKHRDYKSAVIPEKKDTVKKLKEIAFPKAEELKAELLKRYTKEYTEYNEEKKKEAEELARNMAIQQELEKEKQRVAQQKQQQLEQEQFHAFEEMIRNQELEKERLKIVQEFGKVDPGLGGPLVPDLEKPSLDVFPTLTVSSIQPSDCHTTVRPAKPPVVDRSLKPGALANAEAIPTIDGLRHVVVPGRLCPQFLQLASANTARGVETCGILCGKLMRNEFTITHVLIPKQSAGSDYCNTENEEELFLIQDQQGLITLGWIHTHPTQTAFLSSVDLHTHCSYQMMLPESVAIVCSPKFQETGFFKLTDHGLEEISSCRQKGFHPHSKDPPLFCSCSHVTVVDRAVTITDLR [S243A;S245A;S247A] | increasing interaction |
